What is called Kd is the equilibrium constant for the complex coming apart. As a reminder, the koff is a measure of how fast the partners let go of each other. For orientation: kon means a measure of how fast the partners come together.

First the molecules themselves.
T1: recombinant human OX40-Fc (human, UniProt P43489 29-214)
T1 construct: also called rh-OX40-Fc; human OX40 hFC (R & D systems)
T1 sequence: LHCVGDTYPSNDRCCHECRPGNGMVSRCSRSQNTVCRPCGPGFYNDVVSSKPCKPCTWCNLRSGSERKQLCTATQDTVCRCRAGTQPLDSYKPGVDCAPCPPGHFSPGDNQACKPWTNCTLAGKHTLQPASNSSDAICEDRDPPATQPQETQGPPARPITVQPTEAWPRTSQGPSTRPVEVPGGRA

B1: pgXX88-5 (VHH, not shown: small tags and cut ends)
VHH: QVQLVESGGGLVQAGGSLRLSCAASGGTFSTYAMGWFRQAPGKEPQFVARITWSGYTLYTEPVQGRFAISRDNAKNTVYLQMNSLKPEDTAEYFCAADSSEFRDIPNRDSRANYRYWGQGTQVTVSS
B2: pgXX88-27 (VHH, not shown: small tags and cut ends)
VHH: EVQLVESGGGLVQPGGSVTLSCATSKDTFSRYHMGWFRQAAGKEREFVAAIANTGTTTDYADFVKGRFTISRDSAKNTVYLQMDSLKVEDTAMYYCVVGSQFMSYDYWGQGTQVTVSS
B3: pgXX88-16 (VHH, not shown: small tags and cut ends)
VHH: QVQLVESGGGLVQAGESLNLSCSASGSIRNNAVAWFRQGPGNQRLRVAAITNTGTTDYADSVQGRFSIARDNAENTVTLQMNSLKPEDTAIYYCKIYTLPVPISSHDDTWGQGTQVTVSS
B4: pgXX88-19 (VHH, not shown: small tags and cut ends)
VHH: EVQLVESGGGLVQAGGSLRLSCVATGRTRSSTYIMAWFRQAPGKERDFVAAISFIGGSPVYTDSVKGRFTISRVIAENTVHLQMNDLTPEDTALYYCAATDSGPLGPSGPSKYEYWGQGTQVTVSS
B5: pgEG1 (VHH, not shown: small tags and cut ends)
VHH: QVQLVESGGGLVQPGGSLRLSCAASGIIFEAEAMGWVRQAPGKQRESVAFIGSGGNTNVGWSVKGRFTISRDNAKNTLYLQMNSLRPEDTAVYYCNTHPLRSWGQGTQVTVS
B6: pgEG6 (VHH, not shown: small tags and cut ends)
VHH: QVQLVESGGGLVQPGGSLRLSCVASGIIFEAEAMGWYRQAPGKQRESVAFIGSGGNTNVGWSVKGRFTISRDNAKNTVYLQMNSLKPEDTAVYYCNTHPLRSWGQGTQVTVSS
B7: pgEG12 (VHH, not shown: small tags and cut ends)
VHH: QVQLVESGGGLVQAGGSLSLSCTASRNIFSINVMSWYRQAPGKQREFVASITREDFPYYTDSVKGRFTVTRDIANNKVHLQMNSLKLEDTAVYYCNAYYRSDNYWGQGTQVTVSS
B8: pgDD40-HZ-58 (VHH, not shown: small tags and cut ends)
VHH: QVQLVESGGGLVQPGESLTLSCVTSGFVFSNHWMYWDRQAPGKGLEWVADINLGGEMTYYSNSVKGRFTISRDNAKNTVSLRMDNLKVEDTAVYFCAANQQTPPYGLGSREYDYDYWGQGTQVTVSS

T3 sequence (P25942 21-193 limits assumed): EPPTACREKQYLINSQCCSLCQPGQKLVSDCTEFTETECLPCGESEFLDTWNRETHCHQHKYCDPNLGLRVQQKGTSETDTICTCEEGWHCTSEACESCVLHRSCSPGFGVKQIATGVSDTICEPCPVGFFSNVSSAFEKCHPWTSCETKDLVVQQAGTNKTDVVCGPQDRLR

One experiment deals with T1, recombinant human OX40-Fc. Kind of experiment: ELISA, OX40-Fc coated, VHH at 8 nM.
Method: (§1) After four times washing with PBST, the plate was incubated with detecting antibody anti-his-HRP (1:4000 dilution) 100 μl per well for one hour with shaking at 60 rpm. The plate was developed with 100 μL of TMB per well in the dark and then stopped by 50 μL of stop solution per well. […] Data was analyzed using GraphPad Prisma 9.1.
As for B1, the OD450 stood at 0.103.
Still for that read-out and setting: the same measure for B2: 1.34; for B3: 1.52.
B4: the OD450 came to 1.54.

The target in another experiment is T2, EGFR (recombinant human, BLI antigen) (human, UniProt P00533 25-645).
T2 construct: also called rh-EGFR; human EGFR
Kind of experiment: BLI (Octet) as in Example 1. (In general: Biolayer interferometry detects binding as a change in optical thickness at a sensor tip.)
In the case of B5, the Kd was 15.6 nM, the koff turned out to be 0.00243 s⁻¹ and the kon came out at 156000 M⁻¹ s⁻¹.
B6: the Kd amounted to 27.9 nM, the koff came to 0.0136 s⁻¹ and the association rate constant (kon) was determined as 489000 M⁻¹ s⁻¹.
Take B7: the dissociation constant (Kd) is 12.5 nM, the koff was 0.00251 s⁻¹ and the on-rate (kon) is 201000 M⁻¹ s⁻¹.

The target in the next experiment is T1, recombinant human OX40-Fc. Kind of experiment: ELISA, OX40-Fc coated, VHH at 0.0128 nM.
Method: as §1
On to B1, for which the OD450 is 0.057.
Regarding B2, the OD450 came out at 0.155.
Still for that read-out and setting: for B3 the value was 0.169.
On the same count and under the same terms, the same measure for B4: 0.126.

A further experiment addresses T1, recombinant human OX40-Fc. Kind of experiment: ELISA, OX40-Fc coated, VHH at 40 nM. Background: An ELISA detects its analyte on a solid surface through an enzyme-linked reagent.
Method: as §1
For the molecule B1, the OD450 came to 0.242.
With B2, the OD450 stood at 1.35.
B3: the OD450 amounted to 1.48.
With B4, the OD450 is 1.61.

The next experiment deals with T1, recombinant human OX40-Fc. Kind of experiment: ELISA, OX40-Fc coated, VHH at 200 nM.
Method: as §1
B1: the OD450 came to 0.543.
For B2, the OD450 amounted to 1.3.
Still for that read-out and setting: for B3 the value was 1.61.
On the same count and under the same terms, for B4 the value was 1.62.

For another experiment, the target named is T1, recombinant human OX40-Fc. Kind of experiment: ELISA, OX40-Fc coated, VHH at 0.32 nM.
Method: as §1
For the molecule B1, the OD450 is 0.058.
Still for that read-out and setting: the same measure for B2: 0.334; for B3: 0.992.
Take B4: the OD450 is 0.717.

A further experiment concerns the target T1, recombinant human OX40-Fc. Kind of experiment: ELISA, OX40-Fc coated, VHH at 0.064 nM.
Method: as §1
With B1, the OD450 was 0.057.
Same read-out and setting: for B2 the value was 0.115.
On the same count and under the same terms, the same measure for B3: 0.447.
Regarding B4, the OD450 is 0.282.

Another experiment addresses T1, recombinant human OX40-Fc. Kind of experiment: ELISA, OX40-Fc coated, VHH at 1.6 nM.
Method: as §1
For B1, the OD450 was determined as 0.065.
Still for that read-out and setting: the same measure for B2: 1.02.
Same read-out and setting: the same measure for B3: 1.4; for B4: 1.38.

Another experiment addresses T3, Human CD40 antigen (recombinant, BLI) (human, UniProt P25942 21-193).
T3 construct: also called rh-CD40
Kind of experiment: BLI, VHH-His on anti-His tips, human CD40 in solution.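 Further: kinetics measured at 30 °C in PBS pH 7.2, association tracked for 200 s, then dissociation followed in PBS lacking CD40.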
Method: Bio-Layer Interferometry (BLI) kinetic binding analysis. […] Affinity measurements were performed with Gator equipped with Anti-Penta-His capture (HIS1K) biosensor tips. The assay was performed at 30° C. in 1×PBS buffer (Gibco®, PBS pH7.2). Samples were agitated at 1000 rpm. Prior to analysis, sensors were humidified for 15 min. […] Sensor data was collected throughout the experiments, processed, and analyzed using the Gator data analysis software.
Briefly, purified anti-CD40 VHH was tested for its binding capacity with HIS1K sensor tips. Tips were loaded using 20 μg/ml of anti-CD40 VHH. Loading proceeded for 300 sec resulting in capture levels of between 1.8 and 2 nm. […] Association was initiated and monitored for 200 sec, after which tips were transferred to 1×PBS buffer without CD40 protein in order to monitor dissociation.
B8: the Kd turned out to be 0.0406 nM, the koff was 3.32e-05 s⁻¹ and the kon turned out to be 818000 M⁻¹ s⁻¹.

Another experiment addresses T1, recombinant human OX40-Fc. Kind of experiment: ELISA, OX40-Fc coated, VHH at 1000 nM.
Method: as §1
For the molecule B1, the OD450 was 1.09.
Regarding B2, the OD450 was 1.39.
In the case of B3, the OD450 is 1.61.
Same read-out and setting: for B4 the value was 1.69.

For the origin of these results see patent US20250376535A1 (BEIJING STARMAB BIOMED TECHNOLOGY, published 2025).
